Results taken from PMC3863716.
Where two headings read alike, the source gives them in different places.

Key:
[1] = test system: CCCCCCCCCCCCCC(=O)SCCNC(=O)CCNC(=O)[C@H](O)C(C)(C)COP(=O)(O)OP(=O)(O)OC[C@H]1O[C@@H](n2cnc3c(N)ncnc32)[C@H](O)[C@@H]1OP(=O)(O)O; experiment: purified protein
[2] = substrate: CCCCCCCCCCCCCC(=O)SCCNC(=O)CCNC(=O)[C@H](O)C(C)(C)COP(=O)(O)OP(=O)(O)OC[C@H]1O[C@@H](n2cnc3c(N)ncnc32)[C@H](O)[C@@H]1OP(=O)(O)O; experiment: purified protein; remark: listed apart in the source

Molecule	Km [1]	Km [2]
human NMT1 (Homo sapiens)	8.24 ± 0.62 µM	
human NMT2 (Homo sapiens) (protein) AKHRYQFWDTQPVPKLDEVITSHGAIEPDKDNVRQEPYSLPQGFMWDTLDLSDAEVLKELYTLLNENYVEDDDNMFRFDYSPEFLLWALRPPGWLLQWHCGVRVSSNKKLVGFISAIPANIRIYDSVKKMVEINFLCVHKKLRSKRVAPVLIREITRRVNLEGIFQAVYTAGVVLPKPIATCRYWHRSLNPRKLVEVKFSHLSRNMTLQRTMKLYRLPDVTKTSGLRPMEPKDIKSVRELINTYLKQFHLAPVMDEEEVAHWFLPREHIIDTFVVESPNGKLTDFLSFYTLPSTVMHHPAHKSLKAAYSFYNIHTETPLLDLMSDALILAKSKGFDVFNALDLMENKTFLEKLKFGIGDGNLQYYLYNWRCPGTDSEKVGLVLQ		7.24 ± 0.79 µM
